Laboratory results from paper PMC9364715.
Like-named read-outs stand apart in the source and are kept apart here.

Key:
[1] = target: Ad5 hexon with DogTag inserted at HVR5, on Ad-DogTag virions (human adenovirus 5 (Ad5)) (UniProt P04133); test: SDS-PAGE gel shift
[2] = target: Ad5 hexon with DogTag inserted at HVR5, on Ad-DogTag virions (human adenovirus 5 (Ad5)) (UniProt P04133); test: SDS-PAGE gel shift; remark: listed apart in the source

## DogCatcher (designed binder)
[1]
  percent of hexon covalently coupled (% of hexon protein): > 90

## DogCatcher-NANP9 (designed binder)
[1]
  percent of hexon covalently coupled: > 90 % of hexon

## DogCatcher-NANP18 (designed binder)
[2]
  percent of hexon covalently coupled: > 90 % of hexon
[1]
  percent of hexon covalently coupled: > 90 % of hexon
